The data set in a line: protein stability index of a GFP-peptide fusion (GPS, HEK-293T) (PSI 1-6); higher = more stable.
[1] abbreviates: treatment: DMSO, c terminus: a fixed tail appended.
[2] abbreviates: treatment: MLN4924 1 uM, 8 h, c terminus: a fixed tail appended.

± gives the standard deviation.
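Also: 24-mer peptide tiles fused after GFP, lentivirally expressed, FACS-sorted into six equal bins by GFP/DsRed ratio, decoded by Illumina sequencing, PSI is the read-weighted mean bin number.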

Turning to IIHETAVGMNFLHCMAPPLLHLDL [RIPK4], the protein stability index reads like this: under setting [1], 2.6 ± 0.64; under setting [2], 2.57 ± 0.85.
Taken in the same sequence, the figures for IIIYLGPMVLMIIVMCVQIKCFHE [CDS2] were 3.13 ± 0.53 and 3.19 ± 0.24.
On the same counts, the results for IKCETSPPSSPRTLRLEKLGHPAL [PPFIA4] are 3.48 ± 0.35 and 3.56 ± 0.22.
IKEIDEHAPGVPKILVGNRLHLAF [RAB40B]: the protein stability index is 1.93 ± 0.33 under setting [1] and 2.19 ± 0.36 under setting [2].
Take IKQLRSGGTPIRGALQIEQSEESD [PTPRD]: the protein stability index is, setting by setting: under setting [1], 4.98 ± 0.36; under setting [2], 5.15 ± 0.21.
As to ILEFAEKEGMVSSGQNLLAVESQ [PTPN9], the protein stability index by setting is: (treatment: DMSO, c terminus: native) 2.96 ± 0.65; (treatment: MLN4924 1 uM, 8 h, c terminus: native) 3.03 ± 0.37.
On to INSGYETRRKKGKKDKDISKEKDT [KMT2E], for which the protein stability index was found to be 4.59 ± 0.13 under setting [1] and 4.78 ± 0.16 under setting [2].
IPSTQFDAAHPTNVQRLAEPSQML [CTNNB1]: the protein stability index under setting [1] was found to be 4.24 ± 0.18 and the protein stability index under setting [2] came to 4.34 ± 0.09.
For IQDKLFQVAKREREAATKHSKASL [CHCHD6], the protein stability index under setting [1] came to 3.86 ± 0.47 and the protein stability index under setting [2] was 4.14 ± 0.22.
Consider IQFIKLFGMAKIDNLLQEMLLGGS [HNF4A], for which the protein stability index under setting [1] is 2.84 ± 0.72 and the protein stability index under setting [2] was 3.11 ± 0.61.
For the sequence IQYNRRQLLILLQNCTDEGEREAI [POP5], the protein stability index by setting is: under setting [1], 2.74 ± 0.3; under setting [2], 2.78 ± 0.51.
On the same counts, the results for ISIPITGDTLRTFSLVLVLDLSKP [DYNC2LI1] are 2.69 ± 0.62 and 2.865 ± 0.02.
Consider ISWAFTDRPDLSLTVLPKLQARER [C2CD2L], for which the protein stability index reads like this: under setting [1], 2.68 ± 0.28; under setting [2], 2.71 ± 0.43.
Taken in the same sequence, the figures for ITLLILAELLIFSVPIVYEKYKTQ [RTN3] were 3.41 ± 0.32 and 3.4 ± 0.94.
On the same counts, the results for ITWFKDFLPVDTSNNNGRIKQLRS [PTPRD] are 2.47 ± 0.52 and 2.96 ± 0.3.
Turning to IVTWFMLLYAQGLLAIQFLEFFYG [SLC19A2], the protein stability index is, setting by setting: under setting [1], 3.28 ± 0.52; under setting [2], 3.18 ± 0.46.
On the same counts, the results for IYQTLFLNGENSDIKICALGEEWS [GMCL1] are 2.26 ± 0.18 and 2.16 ± 0.19.
As to KAKRNRTCRPPSSSESSSDSDNSG [ANKRD17], the protein stability index reads like this: under setting [1], 5.64 ± 0.27; under setting [2], 5.43 ± 0.2.
Taken in the same sequence, the figures for KALQEENRDLRKASVTIQARAEQE [CCDC6] were 5.32 ± 0.2 and 5.32 ± 0.091.
Turning to KAMNMRYSDRTNIISKPVPQTLIM [FEM1C], the protein stability index is, setting by setting: under setting [1], 2.09 ± 0.14; under setting [2], 2.38 ± 0.5.
In turn, KAVKYQSKARRKKIMIIICCVILG [STX1A] showed a protein stability index under setting [1] of 2.18 ± 0.8 and a protein stability index under setting [2] of 2.25 ± 0.43.
In the case of KCHLWTAMDLGFFVVMGVIGGLLG [CLCN6], the protein stability index was 3.14 ± 0.38 under setting [1] and 3 ± 0.24 under setting [2].
For KDEDLDLFPASPTREAHRESSVPV [FBF1], the protein stability index came to 5.11 ± 0.33 under setting [1] and 5.02 ± 0.35 under setting [2].
Taken in the same sequence, the figures for KDIDMFSMCEHHLVPFVGKVHIGY [GCH1] were 2.34 ± 0.76 and 2.27 ± 0.36.
Taken in the same sequence, the figures for KEDIDLIDILWRQDIDLGAGREVF [NFE2L1] were 2.75 ± 0.57 and 3.47 ± 0.88.
On the same counts, the results for KEDQAWDGASQDCPPLPAGVSFHI [FBXO34] are 3.58 ± 0.33 and 3.46 ± 0.31.
KEEEEKDHNEAMKPEEPPQNLLRE [PCMTD1]: the protein stability index amounted to 5.39 ± 0.77 under setting [1] and 5.88 ± 0.09 under setting [2].
On the same counts, the results for KEERKTEVVMNSQQTPVGTPKDKR [PALM] are 5.43 ± 0.32 and 5.36 ± 0.32.
With KEPAEFNGDGAFLHDNHEQMPTEI [ZNF649], the protein stability index is, setting by setting: under setting [1], 5.11 ± 0.25; under setting [2], 5.16 ± 0.26.
With KESLCISITVSKVDKDQPSILNSC [FBXO34], the protein stability index was 2.28 ± 0.33 under setting [1] and 2.09 ± 0.28 under setting [2].
On the same counts, the results for KFDVLRAIELFHSYRETRRKEGIV [PTPN9] are 2.35 ± 0.079 and 1.91 ± 0.42.
Taken in the same sequence, the figures for KFFFKSMDDDFGVVKEEISDDNAK [DVL3] were 4.76 ± 0.19 and 4.81 ± 0.099.
Taken in the same sequence, the figures for KGEEVTPISAIRHEGKTDSERTDT [EPB41L3] were 5.44 ± 0.45 and 5.43 ± 0.3.
On to KGNTTLQQLDLRWNNVGLLGGRAL [LRRC45], for which the protein stability index turned out to be 2.68 ± 0.034 under setting [1] and 2.73 ± 0.26 under setting [2].
Regarding KGVDFQKFCMNGAALCALGKDCFL [ETS1], the protein stability index worked out at 2.62 ± 0.4 under setting [1] and 2.09 ± 0.28 under setting [2].
On the same counts, the results for KHVEYEVSSQRFKSSVYRRYNDFV [SNX8] are 2.35 ± 0.3 and 2.8 ± 0.39.
Taken in the same sequence, the figures for KIVEFNPMVLKGKIRPDSSRPELL [GLT8D2] were 3.09 ± 0.36 and 3.35 ± 0.39.
Taken in the same sequence, the figures for KKDILLVNDHLLNFVRERTLDKRW [PDS5B] were 2.13 ± 0.26 and 2.35 ± 0.18.
Take KKINTEGDVPPSMSGSCAVCVDRV [KLHDC2]: the protein stability index by setting is: under setting [1], 4.18 ± 0.34; under setting [2], 4.29 ± 0.17.
On the same counts, the results for KKTHETLSHAGQKATAAFSNVGTA [TPD52L1] are 4.44 ± 0.28 and 4.34 ± 0.21.
For KLAEAYLNLGPALSAALASSQKQH [C8orf76], the protein stability index runs as follows: under setting [1], 2.68 ± 0.69; under setting [2], 2.82 ± 0.97.
KLGLHDNHWVPACHSFNRAIHKKA [FBXO34]: the protein stability index stood at 2.79 ± 0.14 under setting [1] and 2.91 ± 0.18 under setting [2].
Turning to KLIATSNKPAVKLLYNRSNNKYSY [KCTD10], the protein stability index worked out at 2.23 ± 0.14 under setting [1] and 2.49 ± 0.23 under setting [2].
Consider KLVKKHAAQRSTETALYRKMLGNP [FKBP8], for which the protein stability index stood at 2.95 ± 0.47 under setting [1] and 3.04 ± 0.25 under setting [2].
With KNKKSSTGEASENGLEDIDRILER [TCF25], the protein stability index runs as follows: under setting [1], 5.22 ± 0.48; under setting [2], 5.49 ± 0.18.
Taken in the same sequence, the figures for KNKPKMNYEKLSRGLRYYYDKNII [ETS1] were 2.71 ± 1.1 and 2.17 ± 0.28.
On the same counts, the results for KPLYPDDYVHISSKPCDLHCTTVD [ADAMTSL2] are 4.29 ± 0.35 and 4.21 ± 0.36.
Taken in the same sequence, the figures for KPVLAKDSSNPYPNFNFNISHQGD [AASDHPPT] were 4.22 ± 0.22 and 4.01 ± 0.18.
Take KRFEKQLTQIDGTLSTIEFQREAL [CHMP4C]: the protein stability index came out at 3.98 ± 0.17 under setting [1] and 4 ± 0.27 under setting [2].
Taken in the same sequence, the figures for KRNFISSKSKQPAGHRRPAGGIRE [C22orf31] were 4.07 ± 0.11 and 3.99 ± 0.22.
On the same counts, the results for KRQVPREQAQAYAERLGVTFFEVS [RAB40A] are 3.11 ± 0.17 and 3.21 ± 0.31.
As for KSENARLVVQIDNAKLAADDFRTK [KRT33B], the protein stability index runs as follows: under setting [1], 4.4 ± 0.41; under setting [2], 4.25 ± 0.27.
With KSESSLPHQTSKMENLPGLASGPG, the protein stability index under setting [1] was 4.87 ± 0.29 and the protein stability index under setting [2] was determined as 4.43 ± 0.33.
Taken in the same sequence, the figures for KTKTSEYPIIFVYYLRKGKKINSN [SPANXN3] were 2.37 ± 0.59 and 2.01 ± 0.49.
On the same counts, the results for KTLAVKNEEIQSFIYSLKQMLLNV [FSD1] are 2.52 ± 0.37 and 2.14 ± 0.21.
Regarding KTLLAIGGWNFSTQKFTDMVATAN [CHIT1], the protein stability index reads like this: under setting [1], 2.39 ± 0.34; under setting [2], 2.14 ± 0.21.
Taken in the same sequence, the figures for KTYHYLYLAMLERFQDGDNILEKE [FEM1B] were 2.03 ± 0.37 and 2.35 ± 0.2.
On the same counts, the results for KVLFALCALNALTTTVCLVAAALR [FAM189A2] are 3.13 ± 0.6 and 3.3 ± 0.21.
Consider KYKSFNRTAMPYGGYEKASKRMTF [MYOZ1], for which the protein stability index by setting is: under setting [1], 2.34 ± 0.31; under setting [2], 2.57 ± 0.24.
Consider KYSFLQFDPAPRRGEPHVTRRTPD [PPP2CA], for which the protein stability index was 4.04 ± 0.27 under setting [1] and 3.85 ± 0.19 under setting [2].
Taken in the same sequence, the figures for LAARVIVNHRIYYKGHIPEKLETF [FEM1C] were 2.82 ± 0.99 and 2.47 ± 0.52.
Taken in the same sequence, the figures for LAATQGLAHMIAECKKLFQVPEEM [DLC1] were 2.52 ± 0.33 and 2.47 ± 0.37.
With LAFVIVLLAHRLRRWHKSRLLQAS [PCDHGA10], the protein stability index came out at 2.15 ± 0.48 under setting [1] and 2.21 ± 0.38 under setting [2].
On the same counts, the results for LAGGKLILSLEGGYNLRALAEGVS [HDAC6] are 2.99 ± 0.76 and 2.31 ± 0.47.
As to LAPDFDRWLDESDAEMELRAKEEE [HACD3], the protein stability index under setting [1] stood at 5.52 ± 0.12 and the protein stability index under setting [2] came out at 5.45 ± 0.21.
Taken in the same sequence, the figures for LAQRTQQDSTRTVGERLQDTHSWK [TEKT4] were 4.42 ± 0.6 and 4.64 ± 0.21.
On to LASDKTSAGNAPLNEEINIASSDS [C18orf25], for which the protein stability index under setting [1] worked out at 5.48 ± 0.17 and the protein stability index under setting [2] was 5.46 ± 0.16.
Taken in the same sequence, the figures for LATSPITVGDLGIVRRRSRDVPES [YJU2B] were 4.42 ± 0.12 and 4.42 ± 0.2.
On the same counts, the results for LCPLCGKNFSNNSNLIRHQRIHAA [ZNF263] are 3.97 ± 0.5 and 4.12 ± 0.47.
On the same counts, the results for LDPHFVPTELWPQEAVPLGLGLED [TEX19] are 5.13 ± 0.3 and 4.91 ± 0.17.
Regarding LEESDIDRDGTINLSEFQHVISRS [CIB1], the protein stability index is 4.69 ± 0.24 under setting [1] and 4.75 ± 0.084 under setting [2].
Taken in the same sequence, the figures for LEFRKSMYEEEINETRRKHETRLV [LMNB1] were 4.02 ± 0.21 and 4.06 ± 0.25.

The values above are taken from the supplement of paper PMC10567573.
